Laboratory results from a protein production outcome set (Wang et al. 2014).

Test: label from the status in PepcDB records
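Also: failed if final PepcDB status was selected cloned or expressed and not failed if soluble or beyond.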

Sequence	protein production
MTTCGEFLVKQLEAWGVETVFGIPGVHTVELYRGLPGSRIRHVTPRHEQGAGFMADGYARVTGKPGVCFIITGPGMTNILTAMAQAYADSIPMLVISSVNERARLAHGNGYLHELPNQRNLVGNVCAFSHTLMSAEELPAVLARAFAVFDSERPRPVHIELPLDVITAPAEHLALRPRTVTSRPAPALAPLREAAARLRNAKKPLLLLGGGCVEAAAEARALAAALDAPTALTINAKGLLPADHPLLLGSNQSCVPVRELATEADVVLAIGTELGETDYDVVFDGGFALDGELIRIDIDPQQLMRNYTPSLAIHSDARLAMRVLLAELPGGEASPDSPGARRAAAVRQRLAEDFAGWSHYRQLFAAILAEWPDARFVGDSTQTVYSGNHLVDLDEPRRWFNASTGYGTLGYGLPAAIGAKLGEPGRPVVSLMGDGGLQFTLPELASAVEAKVGIVVLLWNNHGYGEIKRYMERREITPLGVDIYTPDFLAIARGFGCAAERARDLEHLRELLRGAPADRPLIVEVLQAAPFHP	failed
MYSMLKRVITEKDLLRQIRLLEQLLNVPQLTAKRLAAQIQTTERTVFSDLQYIRSQLPADWSIETDSSGIRLRNQGNAQTNELWSLFLPQSISIQLLKELLFTKELVTTSFLSTSGVSYETLKRHIKKMNQALRDFHLTIQLTTMTIQLIGAESNIRIFYHRLLVPFTHNNYFFDDYSIHEEHYFQFLKQVYSSELTVETEEIFGACWFFINTIRNKANCRVSQFSFDSKDVLFQLYQPSLAKLYASEGIYLQGEESFFAFFCFLESWNYDNVYGETLASALHTHYSQLRKSLQQFVTNLSTEEARPDLIQTNLLDNLLLLFIKYTESPTLSEQFQLEYQELMTEQAAEDLALSKSNQELLEILSRYTTIEEPTYFLSLASLLEKQAIYSIQAQTMTAYFLFQGEPAWKAFLQQELAAYLGTRVKLQAIEYVELSQLTLNEADIIISNFPLDHLDLPVFYLSLIPTKNELRRLAELTLHSYF	not failed
MPSYGNLGRLGGRHEYGVLVAMTSSAELDRVRWAHQLRSYRIASVLRIGVVGLMVAAMVVGTSRSEWPQQIVLIGVYAVAALWALLLAYSASRRFFALRRFRSMGRLEPFAFTAVDVLILTGFQLLSTDGIYPLLIMILLPVLVGLDVSTRRAAVVLACTLVGFAVAVLGDPVMLRAIGWPETIFRFALYAFLCATALMVVRIEERHTRSVAGLSALRAELLAQTMTASEVLQRRIAEAIHDGPLQDVLAARQELIELDAVTPGDERVGRALAGLQSASERLRQATFELHPAVLEQVGLGPAVKQLAASTAQRSGIKISTDIDYPIRSGIDPIVFGVVRELLSNVVRHSGATTASVRLGITDEKCVLDVADDGVGVTGDTMARRLGEGHIGLASHRARVDAAGGVLVFLATPRGTHVCVELPLKR	failed
MLKLLWIALGGSLGALCRYGLSVLARWGLPPTVPWGTLAANLVGCFLIGGLWVLAAQYSFSEELRVFIFTGGIGSLTTFSTYSLESLLLLREGRVWAGLANVLVSNVLGLVLVAIGAGCALFLLGGPVAAFGA	failed
MTMIKGYSEKVEKIYSKLRKTEEDNLKSRREEIKDKLPKIIKIDSEISRLCLKLSTNIFKKINNRDEYIKSLKNEITNLRMERSELLVSNGYPMDYLQMHYNCSKCKDTGYIGAHKCSCYKKYLVQLYYDNSDLKSLLNENNFENFNINYYSNRKSEDEPRTPRKNMEKILSLSLNYIKNFSDSNENLLFYGNSGTGKTFLSHCIAKDLLERGFLVIYKTSADLAQELKQLQFEPNPTLEDLIINCDLLIIDDLGTEQISAFSKTCFFNLINKKLLSQKKMLISSNYNLEELTRLYSERITSRLFGDFTLCKFYGDDIRINRNLKNKKI	failed
MRLAYVKNHEIYGEKLLGLTLRERIEKTLQRAGFDVRFFDELSLEEAEDYLIILEPVLILERDLLLEGRKILVSDGFTVGYFFGGDFRTVFDGNLQSSIEKYLSLNNLESYEIWAIKLSNDNLKTAEKLLLSSLIKAKRTGLKPAYYDGWIAREINRKVSLRISRLLADTSVTPNQITVFSFFLSLVGSALFLLNSYLTTLLAGVIIQLHSIIDGCDGEIARLKFMESKYGAWLDGVLDRYSDFIIVFSITYVLSASNPVYWIIGFLAAFASLMIAYTGDKFVAAYMRTYSPEGFAIPITRDFRLLIIFACSVVNLPSLALVIIALLGNFEALRRIVALRSYTN	failed
MATRRLTDAFLLLRNNSIQNRQLLAEQVSSHITSSPLHSRSIAALADDRMALVSGISLDPEAAIGVTKRPPPKWVDGVDEIQYDVGRIKQKMKELASLHDKHLNRPTLDDSSEEEHAIEITTQEITQLFHRCQRAVQALPSRARACSEQEGRLLGNVVASLAQALQELSTSFRHAQSGYLKRMKNREERSQHFFDTSVPLMDDGDDNTLYHRGFTEDQLVLVEQNTLMVEEREREIRQIVQSISDLNEIFRDLGAMIVEQGTVLDRIDYNVEQSCIKTEDGLKQLHKAEQYQKKNRKMLVILILFVIIIVLIVVLVGVKSR	failed
MSAPADRSFAIERIFNAPVERVFRLWTDPLLVAQWWGIRDCTIPLCVLDVRVGGRWRIDMLTAGGALYRNQGSYLEVVENVRLSYRDEPDPEIREWAGKPPGRSRHTVSFTASGARTHVHFEVTLATAADRERLLALGMRGGWMQSFDRLEQLIGKGADHAG	failed
MKIKGTEKVPILIFLGALAIGIAFLPPENSLTYDGALYINIARSLTKSVTSFTYQGIYMMYRPPLYPYTLSIFFRVFSSNHLLIARLVSVFSFALTSVLVYLLTLEMFRDSVKGIIASLFYIFNPLAFTMAGRELVHSEFTFFYTLAIYLLYTGKVRKSNTRIYLSFIAAGLAILTRYTGLSIVLVFLTYLWLTEDWNWVRRREYLIGFALLFLTLLPWLYMGHLYYGGFFRPFKIASKVVTLDRPVSAFDFIKMVIGDMGFLLPALAVLGFFRVKKDENGWLILSWLVMGGGGILTVTHKESRFITFLSPVIAILASEGIYLLSNLTPRIRRNNIVAVILALLLLIPIGMKADNLRDRWSIVGVYDSNVVRYVSEHYDGKKILVSPYLYTIAGYYYPNAEIDMILNRKEIVEKIAKGYYDVIIHKDPNVYLNIEESGNYVLVKEFHGGRFKVYINRRSLAK	failed
MRNLTFLTRCKPLAASVLALMLLGGAAKSFANNDLPDLGTAAVNTFSLEKEMIYGDAYMRVIRSSAPMLNDPVLSQYLTELGNKLVAHATGVKTPFYFFLLQNDEINAFAFFGGHVAVHTGLFLNADNESELASVLGHEITHVTQRHLARSLEAQQKTGPATVAGLLGAILLTIAVPQAGMAALATTQAMATQSKINYTRLHEKEADRIGMQILVDAGFDPNASAEFFGKLASRYRFTTTPPQMLLTHPLPESRISEARDRAQQYPHRYVPDNLNFQLAKARIQVRFSSFSDDAVLSMFEKQLNKQTYGFKEAALYGKALALFRLKKFDESEKIVDELLKIDDNNLFYIDTKTDLLNERKDYAQAIKLLEAQRNLKPTSQVINANLANIYIEAGEPAKAIPLLEDMIFLDKQNQLPYQLLNLAYKKLGNPGMEYFSNAELMALGANYKGAIDQLNFAYRASEGNQLQLARIEARIRQFKQADREMDALKLEHHHHHH	failed
MITHISPAGSMDLLSQLEVERLKKTASSDLYQLYRNCTLAVLNSGSHTDNSKELLDKHQSFDVNVVRRERGIKLELTDPPEHAFVDGEIIKGIQEHLFSVLRDIVYVNMHLADSQRLNLTNPTHITNLVFGILRNAGALTPGIEPNLVVCWGGHSINGVEYQYTREVGNELGLRELNICTGCGPGAMEGPMKGAAIGHAKQRYTEQRYLGLTEPSIIAA	failed
MKVFIAGGRGRVGSLLADNLEAKGIEVVSGGLEDGIDVISGKGLTEALAGVDTIVNVLNTPRFDAEGAISFFEGAINNLTAEGERAGVRHHIVLSIVGVGQGDASEVGYYLGKVAQEKAVRSASIPATIIRATQFQSYIPVLIDQHTVDGKVIAPRSFVQPVELDEVIELLAEAATTLEPGSEVEIAGPDRFYHDDLFRATLADRGDDREVVTVDAEGAPDVMVPRGAYRTGTVRYPITGIPTV	failed
MIKAILIFNNHGKPRLCKFYQHYSEDTQQQIIRETFHLVSKRDENVCNFLEGGLLIGGSDNKLIYRHYATLYFVFCVDSSESELGILDLIQVFVETLDKCFENVCELDLIFHVDKVHNILAEMVMGGMVLETNMNEIVTQIDA	not failed
MWSVTGALTVAVPPTAAACRTKPFLISSSFPKQTKKLHLSSPSLSLPSSHFSSSFKTAATSIEQQSSVNKGESTKYHFLVANAKFMLDEEEHFQEQLFERLRYFGERELVQDFWLVIEPKFLDNFPKITQRLRRPAVALVSTNGTWITFMKLRLDRVLYDSFEATSLDEALASNPTTLEFDKPKNWVAPYPKYEPGWWDTFLPKVTQESAV	failed
MSMVVNSSDQAITMESLGISGHCDDVFCNELTATVIGEMTKRPTRLDIPIGVDGFVAPISSSADVTVTSREECREVEREGYEDTVNNEEISKPKSMKLLAHAGDDESIKRQENEDDDGRTTVDDDDGRGRINVSRLKALLMITTRE	failed
NENNTVVAETKTSTASETSEPKQVISSKQQLASLYLQAKQSLFKQRALSATMYGLSQKDIGQVISSDMEFYSPENEKQLRAELLSISNTIAGIKLDDADITTKNNQQVMAGLTRYFAGEPNFNIGYIDTWMGLSPFIVNQINGPLIDIPRVMQNDQPITTEKEALDYIVRLGQFDKLAATIIEKQTADAAQNWLPSKVTLQGAIKYLKGFTSGSAEQHPFVNVFREKIEKVDSLTTEQKQSLITQVIAKVSQVVYPAYQSVEKASEQLLSEARSESGIWAQPKGSVYYQDAIKQLGDSELSPTQIHQIGLDEVARISGVMNEILLAQGYTKGTVGERMVALNEEPRFLYEDSIAGREELLSDINGYITEVTAKMAPVFRTTPSYQVEVKSFPVEVQDGAPGGQYTSPAVDGSKPGIYWINLRDMKANPKFGLKTLTYHEANPGHHWQIALNLDQAELPFLRRIAPYNAYTEGWALYSEQVAYELGMYENDPFGDLGRLQAELFRAVRLVVDTGLHDKRWTREQAISYMSEQTGTAESDVVAEIERYMAWPGQALGYKLGMLKILSLREQAKARLGDKFDLAEFHDVVLLNGAVPMAVLSRNVNHWLDNK	not failed
MLNAKTSFALLMAVCLIATGVTGYLLGGINPELIQAWLKAAGIWAPVTYVAVYVVATILILPSTALNLTGGAIFGPWMGTFWTSVGAIIAAIAAFIFARTVGREIVAQRLAGRWQAIDAEVRQGAVFYMFAIRLMPILPYGLVNFAAGLTSISFKDYLIGTALGTVPGILPFVLLGSSGLKAIRTGEVLPLVGALALIGMLVGGSTWYRRRRSFPTRKKP	failed
MQKTAFIWDLDGTLLDSYEAILSGIEETFAQFSIPYDKEKVREFIFKYSVQDLLVRVAEDRNLDVEVLNQVRAQSLAEKNAQVVLMPGAREVLAWADESGIQQFIYTHKGNNAFTILKDLGVESYFTEILTSQSGFVRKPSPEAATYLLDKYQLNSDNTYYIGDRTLDVEFAQNSGIQSINFLESTYEGNHRIQALADISRIFETK	not failed
MECGVFHTPYMRPGRKDKDTFEYSLLLAAACDKFGYRDFMVGEHGMQAWENIPNPELLIVAAAQITERMRFAPMAHIVPLHNPSTLAIQIGYTSQLLEDRYFLGVGAGSWENEAVLRGQPGDLSEAHPRLMEGLEVMDKVWRQEPFDFEGKYYKAARLDGQIDPGSVASHGEFKVKDGEEYHLTADHSPHGGADGLEIAVTGLSKNSPSHRLAGERGWTPISFYGGSALLRSQWDTYSEAVRSIGGTPQGSRFKIARDVFVAKTDEEAKEKAKNGALGLAWQKYLMPVYQKYRILQGFIDDADHKVDIDDVDLDYLADNVWLCGSPDTVIEKIEKTFDLAGFRYGQLAVNTHDAMDDPEPWIESLRLFATEVVPNVPVEGTHETVAVG	failed
MKVLREDEESEIVKQFLDDNNSVIVDFDPIDLYEAVHPPFSIRLSIDRISAMPLSILRRRAAAFVSDPQTLSKLLNNDIAGKFDFIYDNSNRSWQKYYPFSYYRSINAADLYENIKAYTVLDVREPFELIFGSIANSINIPISELREKWKILERDKKYAVICAHGNRSAAAVEFLSQLGLNIVDVEGGIQSWIEEGYPVVYGRESAED	failed
